Residue numbers refer to the chain shown, from its start.
Legend:
[1] = biological target: T1, IL-26 (Homo sapiens, UniProt Q9NPH9); assay: ICAM-1 expression analysis of COLO205 (neutralizing activity of IL-26); type: cell-based; set-up: host or cells: added exogenously to COLO205 cells; conditions: for inhibition of IL-26-enhanced expression of ICAM-1: COLO205, recombinant human IL-26 monomer 20 ng/mL, 24 hours, flow cytometry (MFI); for inhibitory effect on IL-26 compared with m69-10 (ICAM-1 expression): COLO205, antibody doses of 2 μg/mL and 5 μg/mL
T1 sequence (Q9NPH9 22-171): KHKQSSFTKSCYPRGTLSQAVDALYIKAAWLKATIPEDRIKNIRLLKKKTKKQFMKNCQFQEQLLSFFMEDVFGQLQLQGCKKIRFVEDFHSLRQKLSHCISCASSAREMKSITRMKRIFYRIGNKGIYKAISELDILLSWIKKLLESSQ
Protocol: COLO205 was seeded at 5×10^4 cells/well in a 96-well flat bottom plate, and stimulated with recombinant human IL-26 monomer (20 ng/mL) in the presence or absence of control human IgG or anti-human IL-26 antibody. After 24 hours of culture, the cells were collected and washed with ice-cold PBS (FCM buffer) containing 1% FBS and 0.1% sodium azide. Thereafter, a solution prepared by diluting a PE-labeled mouse anti-human ICAM-1 monoclonal antibody (clone 15.2, catalog number 50-0549-T100) of Bay bioscience (Kobe, Japan) or a PE-labeled mouse Igl,k isotype control monoclonal antibody (clone MOPC-21, catalogue number 400114) of BioLegend with FCM buffer to 5 μg/mL, was added at 50 μL/sample, and the mixture was allowed to stand at 4° C. for 25 minutes. Thereafter, the cells were washed with ice-cold FCM buffer, then measured with FACSCalibur, and the obtained data was analyzed with FlowJo.

[2] = biological target: T1, IL-26; assay: MTT assay of HUVECs stimulated with IL-26 (neutralizing activity of IL-26); type: cell-based; set-up: purchased R&D Systems; host or cells: added exogenously to HUVECs; conditions: antibody dose of 3 μg/mL
Protocol: (§1) Human and mouse breast cancer cells (1×10^4) were cultured in 10% FCS containing RPMI1640 medium on a 96-well flat bottom plate (Corning, Tewksbury, MA) at 37° C. for 24 hours, and then stimulated with IL-26 for 48 hours in the presence or absence of EGFR-TKI (gefitinib or erlotinib) at various concentrations, a signal inhibitor, and a neutralizing antibody. HUVECs were seeded in a 96-well flat bottom plate at 5×10^3 cells/well in a 2% FBS-containing EGM medium in which growth factors were reduced by half, and cultured at 37° C. for 12 hours. Thereafter, the medium was aspirated, and a recombinant human IL-26 dimer was adjusted to a final concentration of 10 ng/mL in a 2% FBS-containing EGM medium containing no growth factors, and added to the cells. The stimulation was started in the presence or absence of control human IgG and anti-human IL-26 antibodies, and the cells were cultured for 48 hours. Thereafter, a concentration of 20 μl or 1/10 of a 5 mg/ml MTT solution (Tetrazolium monosodium salt, WST-8) was added to each well, and the plate was allowed to stand for 1 hour. The absorbance at 450 nm/595 nm was measured using Microplate Reader (Bio-Rad, Hercules, CA) and data was analyzed with Microplate Manager 6 software (Bio-Rad).

[3] = test system: HCC70 cells; assay: MTT assay / cell proliferation (confluence) assay, HCC70; type: cell-based, human
Protocol: as §1
Human and mouse breast cancer cells (1×10^4) were cultured in RPMI1640 medium containing 10% FCS for 24 hours at 37° C. on a 96-well flat bottom plate (Corning), and then stimulated with IL-26 (30 ng/ml) in the presence or absence of various concentrations of gefitinib and a neutralizing antibody. Cell proliferation was measured as cell confluence using IncuCyte ZOOM (Essen Bioscience, Ann Arbor, MI).

[4] = Heterogeneous chronic GVHD model (NOG mice transplanted with human umbilical cord blood mononuclear cells); type: in vivo, mouse
Protocol: On day −1, NOG mice were irradiated with a sublethal dose (100 cGy). On day 0, 5×10^6 human umbilical cord blood mononuclear cells were transplanted from the tail vein of NOG mice. Survival of the mice was assessed daily and body weight was measured twice a week. In an antibody treatment experiment, the control human IgG or anti-human IL-26 monoclonal antibody (the mouse antibody m69-10 and the humanized antibody h69-10A) was administered from day +28 of transplantation when clinical signs/symptoms of mild GVHD began to appear. The antibody solution was adjusted to a concentration of 1 mg/mL with sterile PBS, and 200 μL (200 μg) of the antibody solution per mouse was intraperitoneally injected twice a week. On day +56 after transplantation, the mice were sacrificed, and the skin, lung, liver, and large intestine were collected.
NOG mice were dissected, and then the skin, lung, liver, and large intestine on the back were excised, fixed in 10% formalin solution (Wako) at room temperature, and embedded in paraffin. Thereafter, a section having a thickness of 5 μm was prepared and placed on a glass slide, and stained with hematoxylin and eosin (H&E). In addition, in order to confirm the proliferation of collagen fibers, Azan-Mallory staining was performed. Images of the optical microscope were taken with an Olympus BX41 microscope (OLYMPUS, Tokyo, Japan) connected with an Olympus digital camera DP25, and CellSens software was used.

[5] = biological target: T1, IL-26; assay: ELISA of antigen binding to human IL-26; set-up: purchased R&D Systems 1375-IL/CF; conditions: for EC50 values (binding to human IL-26, ELISA): plates coated with 0.5 μg/ml human IL-26 monomer, calculated using GraphPadPrism
Protocol: The antigen binding of purified Ch69-10-IgG1, Hu69-10A-IgG1, and Hu69-10B-IgG1 was analyzed by ELISA. ELISA plates were coated overnight at 4° C. with the addition of 0.5 μg/ml human IL-26 (recombinant human IL-26/AK155 monomer, Cat #1375-IL/CF, R&D Systems, Minneapolis, MN) at 100 μl/well in 0.2 M sodium carbonate buffer (pH 9.4). Wells were washed with the wash buffer and blocked with the ELISA buffer. Subsequently, 100 μl/well of test antibody (mouse 69-10, Ch69-10-IgG1, Hu69-10A-IgG1, or Hu69-10B-IgG1) serially diluted 2-fold in RPMI medium starting at 5 μg/ml was added to measure a binding with IL-26. After incubation at room temperature for 1 hour and washing the plates with a wash buffer, a 1/2,000-diluted HRP-conjugated goat anti-human kappa chain polyclonal antibody (Bethyl Laboratories) (for Ch69-10-IgG1, Hu69-10A-IgG1 and Hu69-10B-IgG1) or a 1/2,000-diluted HRP-labeled goat anti-mouse kappa chain polyclonal antibody (Bethyl Laboratories) (for mouse 69-10) in ELISA buffer was added at 100 μl/well to detect bound antibodies. After incubation at room temperature for 30 min and washing with the wash buffer, 100 μl/well of ABTS substrate (Sigma Aldrich) was added to start color development and 100 μl/well of 2% oxalic acid was added to stop the color development. The absorbance was measured at 405 nm.

[6] = biological target: T2, EphA3/IL-26 interaction (Homo sapiens, UniProt Q9NPH9); assay: Immunofluorescence of rhIL-26-Alexa 488 and cell surface EphA3 on E0771 cells; type: cell-based, mouse; conditions: E0771, antibodies 10 μg/ml, FIGS. 19 and 20
T2 construct: purchased R&D Systems; host or cells: IL-26 was purchased; EphA3 is endogenous on E0771 cells
T2 sequence (Q9NPH9 22-171): T1 sequence (Q9NPH9 22-171)
Protocol: (§2) E0771 and HCC70 cells (1×10^5) were cultured for 24 hours in RPMI1640 medium with 10% FCS on Lab-Tek chamber slides (Thermo Fisher Scientific). The cultured cells were stimulated with Alexa Fluor 488 labeled IL-26 (30 ng/ml) in the presence or absence of recombinant human and mouse EphA3-Ig for 1 hour. HCC70 cells were stimulated with IL-26 (30 ng/ml) in the presence or absence of gefitinib (40 μM), a signal inhibitor, and a neutralizing antibody for 24 hours. Subcutaneous tumor samples obtained from mice were fixed in 4% paraformaldehyde (Thermo Fisher Scientific) and embedded in OCT compound (Tissue-Tek (registered trademark), Sakura Finetek, Japan). Cells and slides were immunostained with each antibody and observed using a Zeiss inverted microscope and Axiovision 2.0 program (Carl Zeiss, Germany). The fluorescence intensity was quantified with Image-J software (NIH). The images were captured using a 100×400× objective.

[7] = biological target: T3, interaction between IL-26 and EphA3 (Homo sapiens, UniProt Q9NPH9); assay: Immunofluorescence of rhIL-26-Alexa488 and cell surface EphA3 on HCC70 cells; type: cell-based; conditions: HCC70, rhIL-26-Alexa488 30 ng/ml, 50 μg/ml each, 1 hour, FIG. 21
T3 construct: purchased R&D Systems; host or cells: IL-26 was purchased; EphA3 is endogenous on HCC70 cells
T3 sequence (Q9NPH9 22-171): T1 sequence (Q9NPH9 22-171)
Protocol: as §2

[8] = 200 μg per mouse i.p. twice a week from day 28, data not shown

B1: Hu69-10A-IgG1: humanized 69-10 IgG1/kappa antibody expressed by pHu69-10A (Hu69-10VH1 and Hu69-10VL1) (antibody, V domains shown)
VH: QVTLKESGPALVKPTQTLTLTCTFSGFSLSTSGMGVGWIRQPPGKALEWLAHIWWDDDKYYNPSLKSQLTISKDTSKNQVVLTMTNMDPVDTATYYCVRGGITATHYYAMDYWGQGTTVTVSS
VL: DIQMTQSPSSLSASVGDRVTITCLASQTIGTWLSWYQQKPGKAPKLLIYAATSLADGVPSRFSGSGSGTKFTFTISSLQPEDIATYYCQQLYSSPWTFGGGTKVEIK
[1]
  inhibition of IL-26-enhanced expression of ICAM-1: partially inhibited
  inhibitory effect on IL-26 compared with m69-10 (ICAM-1 expression): significantly higher inhibitory effect on IL-26 than the original mouse antibody m69-10
[2]
  inhibitory effect on IL-26 compared with m69-10 (HUVEC proliferation): significantly higher inhibitory effect on IL-26 than the original mouse antibody m69-10
[3]; HCC70, IL-26 30 ng/ml, gefitinib 40 μM, 48 hours, MTT, FIG. 59
  reversal of inhibitory effect of IL-26 on gefitinib-induced suppression of cell proliferation: reversed the inhibitory effect of IL-26 on gefitinib-induced suppression of cell proliferation in an antibody dose-dependent manner
[3]; antibody doses of 5 μg/mL and 20 μg/mL
  inhibitory effect on IL-26 compared with m69-10 (HCC70 proliferation): significantly higher inhibitory effect on IL-26 than the original mouse antibody m69-10
[4]; [8]
  body weight loss: clearly reduced
  number of survival days: significantly prolonged
[4]; FIG. 60
  therapeutic effect compared with m69-10: higher therapeutic effect than the original mouse antibody m69-10
[5]
  EC50 values (binding to human IL-26, ELISA): 0.304 µg/mL
[5]; recombinant human IL-26 immobilized on a plate, FIG. 56
  binding to IL-26 (absorption value): stronger binding to IL-26 than an original mouse antibody m69-10

B2: Hu69-10B-IgG1: humanized 69-10 IgG1/kappa antibody expressed by pHu69-10B (Hu69-10VH1 and Hu69-10VL2) (antibody, V domains shown)
VH: B1 VH
VL: B1 VL with K70D
[1]
  inhibition of IL-26-enhanced expression of ICAM-1: partially inhibited
  inhibitory effect on IL-26 compared with m69-10 (ICAM-1 expression): significantly higher inhibitory effect on IL-26 than the original mouse antibody m69-10
[2]
  inhibitory effect on IL-26 compared with m69-10 (HUVEC proliferation): significantly higher inhibitory effect on IL-26 than the original mouse antibody m69-10
[5]
  EC50 values (binding to human IL-26, ELISA): 0.396 µg/mL

B3: rhEphA3-Ig: recombinant human EphA3 Fc chimeric protein purchased from R&D Systems (protein)
chain: ELIPQPSNEVNLLDSKTIQGELGWISYPSHGWEEISGVDEHYTPIRTYQVCNVMDHSQNNWLRTNWVPRNSAQKIYVELKFTLRDCNSIPLVLGTCKETFNLYYMESDDDHGVKFREHQFTKIDTIAADESFTQMDLGDRILKLNTEIREVGPVNKKGFYLAFQDVGACVALVSVRVYFKKCPFTVKNLAMFPDTVPMDSQSLVEVRGSCVNNSKEEDPPRMYCSTEGEWLVPIGKCSCNAGYEERGFMCQACRPGFYKALDGNMKCAKCPPHSSTQEDGSMNCRCENNYFRADKDPPSMACTRPPSSPRNVISNINETSVILDWSWPLDTGGRKDVTFNIICKKCGWNIKQCEPCSPNVRFLPRQFGLTNTTVTVTDLLAHTNYTFEIDAVNGVSELSSPPRQFAAVSITTNQAAPSPVLTIKKDRTSRNSISLSWQEPEHPNGIILDYEVKYYEKQEQETSYTILRARGTNVTISSLKPDTIYVFQIRARTAAGYGTNSRKFEFETSPDSFSISGESSQ
modifications: left off: a dimerising Fc or GST
notes: recombinant human EphA3 Fc chimeric protein purchased from R&D Systems
[6]
  inhibition of colocalization of IL-26 with EphA3 (EphA3/IL-26 interaction): inhibited EphA3/IL-26 interaction
[3]; HCC70, IL-26 30 ng/ml, gefitinib 40 μM, 48 hours, Abs or rhEphA3-Ig 50 μg/ml each, MTT, FIG. 22
  blocking of inhibitory effect of IL-26 on suppression of cell proliferation by gefitinib: potently blocked the inhibitory effect of IL-26 on suppression of cell proliferation by gefitinib
[7]
  inhibition of interaction between IL-26 and EphA3: clearly inhibited the interaction between IL-26 and EphA3
